Assay results as given in a protein production outcome set (Wang et al. 2014).

Assay: label from the status in PepcDB records

RSAHLRVRQLPHAPEHPVATLSTVERRAINLTWTKPFDGNSPLIRYILEMSENNAPWTVLLASVDPKATSVTVKGLVPARSYQFRLCAVNDVGKGQFSKDTERVSLPE
protein production: not failed

MNNPQDYSHKECLKASLLETFGFDGFRPGQEQTITQLLKGQSSLSIFPTGSGKSLCYQLTALHLPHLTLVVSPLLALMKDQLSFLASKGIKAASIDSTLKGNEAQTVMAGVRDGDIKVLMVSVERFKNERFRQFIESVPVSMLVVDEAHCISEWGHNFRPDYLKLPSYCQALNISLVLLLTATATRKVKQDMAAKFAIRDEHIVQTGFYRSNLDLSVLPVTQAHKNKQLEQIISAQQGAGIVYVTLQHSAETVAQYLKQQGINACAYHAGFDSDTRSQIQQDFMAGKIQVIVATIAFGMGIDKSNIRFVIHYDLPKSIENYSQEIGRAGRDGLPSQCFTLANLDGLNTVENFVYGDTPEFTGIEMLLNTIKSEVITSTHVGISDNRSEGKWELQILQLSNAVNIKQLPLKTLLVQLELAGVIEPLYAYFADFKIKLLKPKAEIINSFNDQRKDFLQRIFNATDFKKVWGSLNFDTLLQDQSIERNRVIAALEYLQEQQLIVLETKGMTEVFNIKLNELADPSLCQTLSNYFKDNEEKEIKRIATLVRFFQLDTCLTVNLARYFDDTSFDDKRFDGNSSDNNSLDSARNSGTVPQCGHCSVCRGQVAVLEHSQAQIPWPSDEALKQGMTELAERLSGKINQPLSIESFCRFFAGMSVPLFGRNKVRQLSGFGVCEQQRYQAILEKLASLSK
protein production: failed

MRKRARIIYNPTSGKELFKRVLPDALIKLEKAGYETSAYATEKIGDATFEAERALESEYDLLIAAGGDGTLNEVVNGIAEQPNRPKLGVIPMGTVNDFGRALHLPSDIMGAIDVIIDGHTTKVDIGKMNNRYFINLAAGGKLTQVSYETPSKLKSIVGPFAYYIKGFEMLPQMKAVDVRIEYDDNIFQGEALLFLLGLTNSMAGFEKLVPDAKLDDGYFTLIIVEKANLAELGHIMTLASRGEHTKHPKVIYAKAKSINISSFTDMQLNVDGEYGGKLPANFLNLEQHIEIFTPKDVFNEELLENDTITDITPDKQ
protein production: not failed

MDAAVIVPAYNEAESLARCLAPFESQPVELVVVVGGDDGTEQVARDTPFVDTVVRCDEGGAGIARNRGAAAATAPILLFTDADTVVPEDWVRLHLRHYADDEVIGVGGPARPLEDSLKHRVLFKLLSDYWYRVSWPLGFVQQPGFNCSFRADAFKAAGGFNEDIPFMEDTELSLRMKDYGRIVYDADSCVATSARREADEGYVSLFAKYVRGYANHYILRREFDADYFLEHHHHHH
protein production: failed

MIGFLTDWGLKSHYVGVAKAVIKRINPSAEIIDITHEVEPFNVRKASHVLYRASLDFPPSTVFLVVVDYGVGTSRKAIVMKTKNDQYFVAPDNGVLTVVAEEYGVAEIREIENRELFYKKNPSFTFHGRDIFAPVAAHLDMGLPLERVGDRLLSYEVLKMRKPVVENEKVIGEVAIVDTFGNVSTNIPFDLFLKLSVDFDDVVRVRVGRKEFKAAVAKAFGDVDTGELLVHPDSAGFLEIAVNLGDASQVLSVKEGDEIEICR
protein production: not failed

MSDHFSIIKFDIGNSTMNAERKFLFACLIFALAIYAIHAFGLFDLLTDLPHLQTLIRQSGLFGYSLYILLFIIATLFLLPGSILVIAGGIVFGPFLGTLLSLIAATLASSCSFLLARWMGRDLLLKYVGHSHTFQAIEKGIARNGIDFLILTRLIPLFPYNIQNYAYGLTTIAFWPYTLISALTTLPGIVIYTVMASDLANEGITLRFILQLCLAGLALFILVQLAKLYARHKHVDLSASRRNPLTHPKNEG
protein production: failed

MSVKGFFFILVFFLVAIMGFLIYISETVVVKYLYIAEALMLLLMLYLILFYRKIVKPMNTIGSGMELLREQDFSSRLSHVGQQEADRVVNVFNRMMEQLKNERLRLREQNHFLDLMINASPMGVIIMTLDEEVSQLNPMAMKMMGVRPEEAEGRKLSEIDSPLALELAAIPNGETSTVRLNDSSIYKCTHSSFVDRGFQHPFYLMEGLTDEVMKAEKKAYEKVIRMIAHEVNNTTAGITSTLDTVEQALSESEGMEDICDVMRVCTERCFSMSHFITRFADVVKIPEPRFTPTNLNDLAFTCKRFMEGMCNDRNIRLQLICDESLDDVKLDASLFEQVLVNIIKNAAESIGQDGQIIIRTSLPTAIEVVDNGPGISKETEAKLFSPFFSTKPNGQGIGLIFIREVLSRHGCTFSLRTYADGLTRFRILFP
protein production: failed

MSTAVASAPRSGQVLADLLPASRVRDAALVLGGAALTGLAAQISLPVPGSPVPVTGQTFAALLVGTALGAGRGFLSLAVYALVGMAGVPWFAGGGSGAAAPSFGYILGMLLAATVVGALARRGADRSVLRTAGAMLLGEAIIYAIGVPYLAFATGMSLTAAIAAGLTPFLIGDALKAALAMGVLPTAWKFLNR
protein production: failed

VFVGRCTGDMTEDELREFFSQYGDVMDVFIPKPFRAFAFVTFADDQIAQSLCGEDLIIKGISVHISNAEPKHNSN
protein production: not failed

MEKFTVSKRHWLLLWGLQLGLAGGAAPVFSQAVLPYTPNLDQQQLEDQGLALTEDVVQLVRFQQYDLAFPRAKLATQLAPEQFQTWFILGTLYLQQEEVEPGITVLKKAEALAPEEAGIKFTLGNAYFQKGQYDQAVEVLLAGLAQRPDTPAALFDLGNAYLKLVKYPDAVTAYQKALKAEEQFWPALNNIGLIEYEQGKIDTALKRWQEVIKIDSEQPEPQLAIAVALYKQGKTEEGLRKAQDALNLDSRYGEIDFLVKNLWGEQLIADTKALFATPTMVEVLRTLPPPSDDL
protein production: failed

SEEDDEVVAMIKELLDTRIRPTVQEDGGDVIYRGFEDGIVRLKLQGSCTSCPSSIITLKSGIQNMLQFYIPEVEGVEQV
protein production: not failed

MQLVVARIGRAHGIKGEVTVEVRTDEPELRLGPGAVLATDPASVGPLTIETGRVHSGRLLLRFEGVRDRNGAEALRNTLLIAEVDPDEVPEDPDEYYDHQLMDLDVVTKDGTEVGRITEISHLPSQDLFVVERSDGSEVYIPFVEEIVVEIDLEEQRAVIDPPPGLIDDRAEVDSSDTEAATEADALEHHHHHH
protein production: not failed

MLEGVARPSLLRRLSCAPGMPAPVRRLAERIEGSHLATRLAEGAFWSFAGSALSRAFALAASVVTARFLGKAQYGELGVLLSTLLTFQAFASLGLGMTATKYVSELRTKDPERAGRILGMSAVLSAATGVLAAALLWAFAPWLASSTIGAPHLTEPLRIAGLGLVFTTMGGAQTGALAGFEAFRTQTQLNVWLGLLGVPIAVVGVWRWGLQGAVWATVVTAALQWALTHVAVRVHARRDRVPVSPRGWWREQRILWTFSLPALAQGVMVGPVSWAAAAILVNQPGGYPEMGAFSAANQWYAAVLFLPNALCGPVLPVLSERVGRGDGPGVRAVLRAAVAMNAAAVIPIVAAGCLASPWLVRIYGPQFADAWPTFAVVLITAGIVAITNPVGYVLAASERLWLGFLMNSGWAAAFLVATVLLVGWGSLGLATGRLLAYALHFGWTLWFAMRFVRAGAARGT
protein production: failed

MGTEATEQVSWGHYSGDEEDAYSAEPLPELCYKADVQAFSRAFQPSVSLTVAALGLAGNGLVLATHLAARRAARSPTSAHLLQLALADLLLALTLPFAAAGALQGWSLGSATCRTISGLYSASFHAGFLFLACISADRYVAIARALPAGPRPSTPGRAHLVSVIVWLLSLLLALPALLFSQDGQREGQRRCRLIFPEGLTQTVKGASAVAQVALGFALPLGVMVACYALLGRTLLAARGPERRRALRVVVALVAAFVVLQLPYSLALLLDTADLLAARERSCPASKRKDVALLVTSGLALARCGLNPVLYAFLGLRFRQDLRRLLRGGSCPSGPQPRRGCPRRPRLSSCSAPTETHSLSWDN
protein production: failed

MLNDQEVLSMSSVSLSPLFRRSIGFDRLNDLFDYAMQSETPNYPPYNIEKDGENNYRILIASAGFDQDELRIHLENQVLTISGQPDSEQVDKNIEYLHKGIARRAFKLSLRLDEHIEVQQADYENGLLKIELQRIIPEEKMPRQIPIGQSKSIKNIESSKIVNS
protein production: failed

MMGDSVIYYVEQADEPVNRADERARKTFKYFWRELFWERRRIISALDFAMVKVPFFQDGEDGEICEHMWIDDIYFDGLYIYGVLNNEPGELTNVEQGESVCVPVDDISDWMFVCNGIPYGGFTIQAMRGQMTEEERTEHDAAWGIDFGDPGQILLVYEEKEHPENLEEHPMCRNCIDDFRQQLSQNSDYLREQDEDGYTPLHHEAIAGNALMVQAMLEYGANPASTTSEGYTALDFACLTGWQNVADLLEPRH
protein production: failed
